Source: PMC4297941 (Redox Biology, 2014)

Experiments:
[1] = biological target: T1, wild type human endothelial nitric oxide synthase (eNOS), histidine tagged, recombinant (human), P29474; assay: SEC; settings: remark: other sources report otherwise
T1 chain: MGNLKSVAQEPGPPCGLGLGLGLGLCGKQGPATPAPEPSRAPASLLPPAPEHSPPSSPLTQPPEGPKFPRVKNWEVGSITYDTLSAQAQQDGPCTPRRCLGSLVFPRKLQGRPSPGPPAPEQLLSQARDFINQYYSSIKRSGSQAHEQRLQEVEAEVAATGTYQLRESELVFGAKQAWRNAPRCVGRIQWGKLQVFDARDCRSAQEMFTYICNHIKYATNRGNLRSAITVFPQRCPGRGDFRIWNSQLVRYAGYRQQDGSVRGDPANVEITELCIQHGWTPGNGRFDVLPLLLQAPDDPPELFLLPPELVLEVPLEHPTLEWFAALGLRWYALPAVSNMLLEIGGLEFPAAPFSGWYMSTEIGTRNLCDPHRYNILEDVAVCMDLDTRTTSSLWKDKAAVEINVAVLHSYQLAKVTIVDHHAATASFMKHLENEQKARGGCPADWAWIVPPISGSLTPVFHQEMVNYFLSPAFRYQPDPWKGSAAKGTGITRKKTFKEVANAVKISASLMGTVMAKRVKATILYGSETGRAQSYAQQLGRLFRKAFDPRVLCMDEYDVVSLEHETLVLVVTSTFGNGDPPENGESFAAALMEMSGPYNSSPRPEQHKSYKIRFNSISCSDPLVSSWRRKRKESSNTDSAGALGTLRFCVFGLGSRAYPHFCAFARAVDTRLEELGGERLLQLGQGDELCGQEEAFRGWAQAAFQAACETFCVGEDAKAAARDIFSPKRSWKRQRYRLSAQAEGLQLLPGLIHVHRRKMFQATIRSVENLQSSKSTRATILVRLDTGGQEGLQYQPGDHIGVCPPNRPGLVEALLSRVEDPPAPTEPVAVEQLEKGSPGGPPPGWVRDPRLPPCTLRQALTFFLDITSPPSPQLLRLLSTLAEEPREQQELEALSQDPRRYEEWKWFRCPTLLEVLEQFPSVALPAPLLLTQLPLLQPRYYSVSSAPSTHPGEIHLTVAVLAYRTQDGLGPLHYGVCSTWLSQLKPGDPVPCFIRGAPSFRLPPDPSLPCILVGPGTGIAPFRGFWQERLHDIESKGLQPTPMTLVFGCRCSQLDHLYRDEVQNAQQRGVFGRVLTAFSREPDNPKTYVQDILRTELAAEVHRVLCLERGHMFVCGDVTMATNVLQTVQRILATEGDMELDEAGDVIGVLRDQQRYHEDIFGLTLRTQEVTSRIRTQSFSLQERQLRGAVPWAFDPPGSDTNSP

[2] = biological target: the molecule itself; assay: SEC

Binder | stoichiometry N [1] | stoichiometry N [2]
wild type human endothelial nitric oxide synthase (eNOS), histidine tagged, recombinant, P29474 1-1203 (enzyme) MGNLKSVAQEPGPPCGLGLGLGLGLCGKQGPATPAPEPSRAPASLLPPAPEHSPPSSPLTQPPEGPKFPRVKNWEVGSITYDTLSAQAQQDGPCTPRRCLGSLVFPRKLQGRPSPGPPAPEQLLSQARDFINQYYSSIKRSGSQAHEQRLQEVEAEVAATGTYQLRESELVFGAKQAWRNAPRCVGRIQWGKLQVFDARDCRSAQEMFTYICNHIKYATNRGNLRSAITVFPQRCPGRGDFRIWNSQLVRYAGYRQQDGSVRGDPANVEITELCIQHGWTPGNGRFDVLPLLLQAPDDPPELFLLPPELVLEVPLEHPTLEWFAALGLRWYALPAVSNMLLEIGGLEFPAAPFSGWYMSTEIGTRNLCDPHRYNILEDVAVCMDLDTRTTSSLWKDKAAVEINVAVLHSYQLAKVTIVDHHAATASFMKHLENEQKARGGCPADWAWIVPPISGSLTPVFHQEMVNYFLSPAFRYQPDPWKGSAAKGTGITRKKTFKEVANAVKISASLMGTVMAKRVKATILYGSETGRAQSYAQQLGRLFRKAFDPRVLCMDEYDVVSLEHETLVLVVTSTFGNGDPPENGESFAAALMEMSGPYNSSPRPEQHKSYKIRFNSISCSDPLVSSWRRKRKESSNTDSAGALGTLRFCVFGLGSRAYPHFCAFARAVDTRLEELGGERLLQLGQGDELCGQEEAFRGWAQAAFQAACETFCVGEDAKAAARDIFSPKRSWKRQRYRLSAQAEGLQLLPGLIHVHRRKMFQATIRSVENLQSSKSTRATILVRLDTGGQEGLQYQPGDHIGVCPPNRPGLVEALLSRVEDPPAPTEPVAVEQLEKGSPGGPPPGWVRDPRLPPCTLRQALTFFLDITSPPSPQLLRLLSTLAEEPREQQELEALSQDPRRYEEWKWFRCPTLLEVLEQFPSVALPAPLLLTQLPLLQPRYYSVSSAPSTHPGEIHLTVAVLAYRTQDGLGPLHYGVCSTWLSQLKPGDPVPCFIRGAPSFRLPPDPSLPCILVGPGTGIAPFRGFWQERLHDIESKGLQPTPMTLVFGCRCSQLDHLYRDEVQNAQQRGVFGRVLTAFSREPDNPKTYVQDILRTELAAEVHRVLCLERGHMFVCGDVTMATNVLQTVQRILATEGDMELDEAGDVIGVLRDQQRYHEDIFGLTLRTQEVTSRIRTQSFSLQERQLRGAVPWAFDPPGSDTNSP | 2 | –
C94R/C99R eNOS mutant, histidine tagged, recombinant (enzyme, human, UniProt P29474 1-1203, looked up) MGNLKSVAQEPGPPCGLGLGLGLGLCGKQGPATPAPEPSRAPASLLPPAPEHSPPSSPLTQPPEGPKFPRVKNWEVGSITYDTLSAQAQQDGPRTPRRRLGSLVFPRKLQGRPSPGPPAPEQLLSQARDFINQYYSSIKRSGSQAHEQRLQEVEAEVAATGTYQLRESELVFGAKQAWRNAPRCVGRIQWGKLQVFDARDCRSAQEMFTYICNHIKYATNRGNLRSAITVFPQRCPGRGDFRIWNSQLVRYAGYRQQDGSVRGDPANVEITELCIQHGWTPGNGRFDVLPLLLQAPDDPPELFLLPPELVLEVPLEHPTLEWFAALGLRWYALPAVSNMLLEIGGLEFPAAPFSGWYMSTEIGTRNLCDPHRYNILEDVAVCMDLDTRTTSSLWKDKAAVEINVAVLHSYQLAKVTIVDHHAATASFMKHLENEQKARGGCPADWAWIVPPISGSLTPVFHQEMVNYFLSPAFRYQPDPWKGSAAKGTGITRKKTFKEVANAVKISASLMGTVMAKRVKATILYGSETGRAQSYAQQLGRLFRKAFDPRVLCMDEYDVVSLEHETLVLVVTSTFGNGDPPENGESFAAALMEMSGPYNSSPRPEQHKSYKIRFNSISCSDPLVSSWRRKRKESSNTDSAGALGTLRFCVFGLGSRAYPHFCAFARAVDTRLEELGGERLLQLGQGDELCGQEEAFRGWAQAAFQAACETFCVGEDAKAAARDIFSPKRSWKRQRYRLSAQAEGLQLLPGLIHVHRRKMFQATIRSVENLQSSKSTRATILVRLDTGGQEGLQYQPGDHIGVCPPNRPGLVEALLSRVEDPPAPTEPVAVEQLEKGSPGGPPPGWVRDPRLPPCTLRQALTFFLDITSPPSPQLLRLLSTLAEEPREQQELEALSQDPRRYEEWKWFRCPTLLEVLEQFPSVALPAPLLLTQLPLLQPRYYSVSSAPSTHPGEIHLTVAVLAYRTQDGLGPLHYGVCSTWLSQLKPGDPVPCFIRGAPSFRLPPDPSLPCILVGPGTGIAPFRGFWQERLHDIESKGLQPTPMTLVFGCRCSQLDHLYRDEVQNAQQRGVFGRVLTAFSREPDNPKTYVQDILRTELAAEVHRVLCLERGHMFVCGDVTMATNVLQTVQRILATEGDMELDEAGDVIGVLRDQQRYHEDIFGLTLRTQEVTSRIRTQSFSLQERQLRGAVPWAFDPPGSDTNSP | – | 2
